Assays:
RhoA [1] = molecular target: RhoA (UniProt Q9QUI0); experiment: anti-RhoGDI1 co-IP from cytosolic fraction; conditions: reference: unstimulated acini; sites S96
RhoA [2] = molecular target: RhoA (UniProt Q9QUI0); experiment: anti-RhoGDI1 co-IP from acinar lysate; conditions: reference: unstimulated acini; sites S96

percent of reference (RhoA [1]) [%] | percent of reference (RhoA [2]) [%] | Substance
42 | – | RhoGDI1 (endogenous) (from UniProt Q99PT1) CCK 300 pM, 5 min
– | 37 | RhoGDI1 (endogenous) (from UniProt Q99PT1) PMA 500 nM

From PMC3679036
